Experimental data as given in publication PMC314469, “Protein Interaction Networks by Proteome Peptide Scanning” (PLoS Biology, 2004).

T1: Boi1 SH3 (BOI1_YEAST), P38041
T1 chain: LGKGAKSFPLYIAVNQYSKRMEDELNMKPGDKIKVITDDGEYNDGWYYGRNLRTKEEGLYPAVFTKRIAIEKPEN

T2: Boi2 SH3 (BOI2_YEAST), P39969
T2 chain: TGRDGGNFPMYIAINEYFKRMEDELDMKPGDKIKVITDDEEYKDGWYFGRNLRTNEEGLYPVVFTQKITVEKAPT

T3: Rvs167 SH3 (RV167_YEAST), P39743
T3 chain: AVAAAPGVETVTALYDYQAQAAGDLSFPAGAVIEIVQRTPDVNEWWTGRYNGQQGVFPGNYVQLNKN

T4: Yfr024 SH3 (LSB3_YEAST), P43603
T4 chain: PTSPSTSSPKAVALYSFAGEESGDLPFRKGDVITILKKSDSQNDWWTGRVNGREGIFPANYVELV

T5: Yhr016c SH3 (YSC84_YEAST), P32793
T5 chain: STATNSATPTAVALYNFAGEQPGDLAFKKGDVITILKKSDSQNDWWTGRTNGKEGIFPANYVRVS

T6: amphyphisin SH3 (AMPH_HUMAN), P49418
T6 chain: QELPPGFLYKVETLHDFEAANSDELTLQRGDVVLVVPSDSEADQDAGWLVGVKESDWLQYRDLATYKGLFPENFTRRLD


Legend:
Assay in all cases: SPOT array
[1] = biological target: T1, Boi1 SH3 (BOI1_YEAST), P38041
[2] = biological target: T2, Boi2 SH3 (BOI2_YEAST), P39969
[3] = biological target: T3, Rvs167 SH3 (RV167_YEAST), P39743
[4] = biological target: T4, Yfr024 SH3 (LSB3_YEAST), P43603
[5] = biological target: T5, Yhr016c SH3 (YSC84_YEAST), P32793
[6] = biological target: T6, amphyphisin SH3 (AMPH_HUMAN), P49418
[7] = biological target: endophilin SH3 (SH3G2_HUMAN), Q99962

Row | Binder | normalised SPOT signal, Boehringer light units (BLU); mean over the file's lines of this peptide [1] | normalised SPOT signal, Boehringer light units (BLU); mean over the file's lines of this peptide [2] | normalised SPOT signal, Boehringer light units (BLU); mean over the file's lines of this peptide [3] | normalised SPOT signal, Boehringer light units (BLU); mean over the file's lines of this peptide [4] | normalised SPOT signal, Boehringer light units (BLU); mean over the file's lines of this peptide [5] | normalised SPOT signal, Boehringer light units (BLU); mean over the file's lines of this peptide [6] | normalised SPOT signal, Boehringer light units (BLU); mean over the file's lines of this peptide [7]
1 | NIQPDLPPRKIMIP [YBR239C 90-103] | 1500 | 111 | 33000 | 27200 | 56900 | – | –
2 | NIQPNIPLRSYRYL [YHL023C 782-795] | 13200 | 760 | 915 | 19500 | 5920 | – | –
3 | NKIPPKPRKVLQLL [YGL076C 93-106] | 63.6 | 99.5 | 188 | 1730 | 172 | – | –
4 | NKVPTNPKKFKKAP [YDR181C 326-339] | 126 | 70.3 | 20.2 | 178 | 210 | – | –
5 | NLDPNPPVRGENLT [YDL046W 61-74] | 81.4 | 18.3 | 26.6 | 118 | 315 | – | –
6 | NLKPERPSKVSFEM [YEL062W 548-561] | 103 | 52.6 | 805 | 4070 | 1350 | – | –
7 | NLKPFHPPKEKSMN [YPL159C 186-199] | 109 | 72.2 | 128 | 417 | 770 | – | –
8 | NMVPLNPNRIIPDE [YDR499W 189-202] | 31.3 | 143 | 340 | 1110 | 504 | – | –
9 | NNAPTLPKRKNPKI [YPR055W 477-490] | 2740 | 62.5 | 19800 | 40800 | 45600 | – | –
10 | NNGPKIPQKNTIDS [YKR029C 581-594] | 44.6 | 27.3 | 26.5 | 424 | 74.1 | – | –
11 | GAASISRPTRAVPS [P35568 971-984] | – | – | – | – | – | 957 | 202
12 | GASLFNRPTKLFEP [O75077 489-502] | – | – | – | – | – | 59.5 | 66.2
13 | GAFQPGRPLRVVAT [O60560 190-203] | – | – | – | – | – | 1260 | 148
14 | GAGQPRRPEAEPGQ [Q96AA2 6283-6296] | – | – | – | – | – | 10.5 | -0
15 | AKLFPGRPPVKKLL [CAD39032 203-217] | – | – | – | – | – | 93.5 | 13400
16 | GAGSPARPPSPRLD [BAC04581 11-25] | – | – | – | – | – | 339 | 15300
17 | GAKGPRRPGEEAEL [O15417 267-280] | – | – | – | – | – | 0 | 39.5
18 | GALHPPRPGRGLGQ [Q9UHX5 114-127] | – | – | – | – | – | 441 | 78.6
19 | GALPPRRPERPVGP [Q9NYR0 415-428] | – | – | – | – | – | 3480 | 13800
20 | GAPGPRRPFQQKPL [Q9BYB0 718-731] | – | – | – | – | – | 6.3 | 2000
21 | GARSPKRPRLQLPG [Q9BWN1 26-39] | – | – | – | – | – | 18.6 | 1210
22 | GASSIARPFRRDSQ [Q9Y6N3 202-215] | – | – | – | – | – | 671 | 120
23 | GAWPLKRPGRISSQ [Q9NXX3 159-172] | – | – | – | – | – | 1500 | 213
24 | GSVRPARPERRLRS [Q9Y5B0 72-85] | – | – | – | – | – | 12500 | 18700
25 | GDAPPPRPPPPVRP [CAD38936 189-203] | – | – | – | – | – | 1250 | 14700
26 | GDEPLPRPPRGAPH [Q92529 130-143] | – | – | – | – | – | 155 | 253
27 | GDPAPSRPLRAHFL [Q9P244 448-461] | – | – | – | – | – | 9150 | 5050
28 | GDSKLFRPRRPRSS [O94820 218-231] | – | – | – | – | – | 970 | 233
29 | GEDVLARPQRFAQL [Q96LA8 243-256] | – | – | – | – | – | 194 | 7.6
